Assay results as given in publication PMC2132843 (The Journal of Cell Biology, 1998).

B1: Kel2-DBD (natural protein, S. cerevisiae, UniProt P50090 1-882, looked up)
chain: MVPFKLTNKVPTDTGPSLISAQSVPRPIVFMDNRNNTRIVTPTLPPNQHRGISGASTALPWSPESKNTGKYIWNRVKLKNSPFPRYRHSSSFIVTNDNRIFVTGGLHDQSVYGDVWQIAANADGTSFTSKRIDIDQNTPPPRVGHASTICGNAYVVFGGDTHKLNKNGLLDDDLYLFNINSYKWTIPQPIGRRPLGRYGHKISIIASNPMQTKLYLFGGQVDETYFNDLVVFDLSSFRRPNSHWEFLEPVGDLPPPLTNHTMVAYDNKLWVFGGETPKTISNDTYRYDPAQSEWSKVKTTGEKPPPIQEHASVVYKHLMCVLGGKDTHNAYSNDVYFLNLLSLKWYKLPRMKEGIPQERSGHSLTLMKNEKLLIMGGDKTDYASPNIHDLQTSETDQGEGTLLYTLDLSSLNELCPGIMCESLHAGESFSNSLSGGFTPSKSTESENQEIINILTPRLPDSKVLSYNDIDEGAGSYSSALDDKAFERKSDREEKKPQSSKVDSSINKESPGTGIKVSKKNFPVLRGLTVDSEEYGSSSYKDTSCQKGIPKNLFDDLNLNLQTLRLEAQQKELETARHISQLEKEVQRLMVIKEASKDSNFQTARLKNLEIQKTFLESRINDLKNLLMVKLSQASKLCDQITIQNNGLKTCSEHVTIKRDIIDLENKCDVLKRQNEILVNNMQKITPELHTYLNESSCYLGKLLKSYPTSARPPSSEKDNQIYEKDSLNKIEKVINEMHETVRAKEKLHLETQKLNDERDSLRANLLDNNNKLDALRKLSDGSSKSMDLTKKAIHLSQSELEKYRKNNDDLQKEIDRIKTEQAEQDDKQEQRGAITHGNFDAFHRMKINNLKAELYMSKENRDSLKDELLALKKKLYTLEQKK

Key:
[1] = molecular target: B1; test: two-hybrid
[2] = molecular target: the molecule itself; test: two-hybrid

Row | Binder | fold increase of β-galactosidase activity against Kel1-AD or Kel2-DBD alone [1] [fold] | interaction relative to that of Kel1p-AD with Kel2-DBD [2] [%]
1 | Kel1-AD (natural protein, S. cerevisiae, UniProt P38853 1-1164, looked up) MAGFSFAKKFTHKKHGKTPSDASISDQSREASLSTPPNEKFFTKQETPQKGRQFSQGYHSNVNKTSSPPMFARKQVSESRIQPSAVPPQQRNVSGPSTTLHKQLSKQREYTVWNRIKLQNSPFPRYRHVASAYVTDKNQIYVIGGLHDQSVYGDTWILTAFDNATRFSTTTIDISEATPPPRVGHAAVLCGNAFVVFGGDTHKVNKEGLMDDDIYLLNINSYKWTVPAPVGPRPLGRYGHKISIIATTQMKTKLYVFGGQFDDTYFNDLAVYDLSSFRRPDSHWEFLKPRTFTPPPITNFTMISYDSKLWVFGGDTLQGLVNDVFMYDPAINDWFIIDTTGEKPPPVQEHATVVYNDLMCVVGGKDEHDAYLNSVYFLNLKSRKWFKLPVFTAGIPQGRSGHSLTLLKNDKILIMGGDKFDYARVEEYDLHTSDIDMQRGTIVYTLDLARIKDLCPGVMDVPTDTPTPRNGNLDLATPVTPTSHQTKNMNVPISAAPLASAPSPAPKDFSDADRLNREVHNRNVSTEHQNQSHPVNSESHLIAEPNILTPYVPSESSQTPVMKITSNKPFDTPTIQKEPDLSETMDPTVGNQRIPSSIYGDNLTPANQIKNNSPILETLPSNEIKTPQNGNIEEIKHLPDADEKIDSTTTFDQEINGDKLGTSSMSKVEEDGNVADEDDEIGVAQMASSPSKDQFKIKHYNESSELSQNNTEIDKLSEPVDITIKKSDTAGHDSANHVIDASDEKNVSPMGDVPTDTKNEEASVPINRDATTEVVDRALFEKLRSELQSLKELTHEKALEAGAHIKELETELWQLKSQKNSGTTKEIDELDSVRLQSKCEILEADNHSLEDKVNELEELVNSKFLDIENLNEVIQFQNEKIKSLELEPNYKEKLEELQIEHENLSRENERLKNESKQHNEDIINNVANYSSQLGSLISHWKENRANSSFLESSSSLISVSDENGEKTVGEPYGDQSRHHRVVINKLTNRLDDLLERSQELTISKEKLSSEYHALKMEHSSLSQDVLVKENEIKKIQNDYKESISSMDSASKALMVSQRELEKYKSLNKKLIDELDELKFKNGVCSENFENGLRSTEESSNNVKNSNSIRENQFNIKINDLKAELFITNQERDDLKSEVLELKKRLLNLENNTKQVNEDADSDLL | > 100 | 
2 | B1 |  | ~10
